# Laboratory results as given in the nanobody polyreactivity screen of Harvey et al. (2022).
# Test: yeast display, Sf9 membrane polyspecificity reagent, FACS + sequencing; frameworks hold sequencing errors
# In short: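 After 36–48 hours of galactose induction, yeast (Saccharomyces cerevisiae BJ5465) displaying a synthetic nanobody library were stained at 4 °C for 1 hour with 10% biotinylated, detergent-solubilized Sf9 membrane reagent. Streptavidin microbeads enriched the stained cells before FACS sorting into low and high (top ~1%) gates on anti-HA and streptavidin fluorescence. Each clone's polyreactivity label reflects its gate of origin.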
row,Sequence,polyreactivity (PSR sort gate)
1,QVQLVESGGGLVQAGGSLRLSCAASGFIFVEYAMGWYRQAPGKERELVAAISGRDGSTYYADSVKGRFTISRDNAKNTVYLQMNSLKPEDTAVYYCAADRIHSVTRYDYDYWGQGTQVTVSS,low polyreactivity
2,QVQLVESGGGLVQAGGSLRLSCAASGFIFVGNDMGWYRQAPGKERELVAAISSGGSTYYADSVKGRFTISRDNAKNTVYLQMNSLKPEDTAVYYCAATYVYYLYGYWGQGTQVTVSS,low polyreactivity
3,QVQLVESGGGLVQAGGSLRLSCAASGFIFVGNDMGWYRQAPGKERELVAAISSGGTTIYADSVKGRFTISRDNAKNTVYLQMNSLKPEDTAVYFCAADYDYRQGYDSVHLDYWGQGTQVTVSS,low polyreactivity
4,QVQLVESGGGLVQAGGSLRLSCAASGFIFVGNVMGWYRQAPGKERELVARISTSGGSTYYADSVKGRFTISRDNAKNTVYLQMNSLKPEDTAVYYCAARRRTGREYGYWGQGTQVTVSS,high polyreactivity
5,QVQLVESGGGLVQAGGSLRLSCAASGFIFVIYAMGWSRQAPGKERELVAAIRWRGGGTYYADSVKGRFTISRDNAKNTVYLQMYSLKPEDTAVYYCNADGWTYREEYWWRMDYWGQGTQVTVSS,low polyreactivity
6,QVQLVESGGGLVQAGGSLRLSCAASGFIFVKYAMGWNRQAPGKERELVAAITNGCSTYYADSVKGRFTISRDNAKNTVYLQMNSLKPEDTAVYYCAAGHPEYDFWGQGTQVTVSS,low polyreactivity
7,QVQLVESGGGLVQAGGSLRLSCAASGFIFVKYVMGWYRQAPGKERELVATITNGVSTNYADSVKGRFTISRDNAKNTVYLQMNSLKPEDTAVYYCNTGSNAWYFSGDYWGQGTQVTVSS,low polyreactivity
8,QVQLVESGGGLVQAGGSLRLSCAASGFIFVNYAMGWYRQAPGKERELVAAITRRGGRTYYADSVKGRFTISRDNAKNTVFLQINRLKPEDTAVYYCATENQSRTPEEDSWGQGTQVTVSS,high polyreactivity
9,QVQLVESGGGLVQAGGSLRLSCAASGFIFVRNAMVWYRQAPGIERELVAAIRWSGGSTYYADSVKGRFTISRDNAKNTVYLQMNSLKPEDTAVYYCAKEPPPVKGDYWGQGTQVTVSS,low polyreactivity
10,QVQLVESGGGLVQAGGSLRLSCAASGFIFVRNTRGWYRQAPGKERELVATITRRGGSTSYADSVKGRFTISRDNAKNTVYLQMNSLKPEDTAVYYCNARSVYGSKQEEYWGQGTQVTVSS,high polyreactivity
11,QVQLVESGGGLVQAGGSLRLSCAASGFIFVRYALGWYSQAPGKEMELVAAIRRGGGDSSYYADSVKGRFTISRDNAKNTVYLQMNSLKPEDTAVYYCAARPAIERDYWGQGTQVTVSS,high polyreactivity
12,QVQLVESGGGLVQAGGSLRLSCAASGFIFVRYAMGWYRQAPGKERELVAAISSSGGTTNYADSVKGRFTISRDNAKNTVYLQMNSLKPEDTAVYYCAAYVYQTPHSLHIYDYWGQGTQVTVSS,low polyreactivity
13,QVQLVESGGGLVQAGGSLRLSCAASGFIFVRYAMGWYRQAPGKQRELVASITRSGGSTYYADSVKGRFTISRDNAKNTVYLQMNSLKPEDTAVYYCAASYFRSRGSTYGYWGQGTQVTVSS,high polyreactivity
14,QVQLVESGGGLVQAGGSLRLSCAASGFIFVVYTMGWYRQAPGKERELVAAITSGGSTYYADSVKGRFTISRDNAKNTVYLQMNSLKPEDTAVYYCYALASRYPAYYYWGQGTQVTVSS,low polyreactivity
15,QVQLVESGGGLVQAGGSLRLSCAASGFIFVYNAMGWYRQAPGKERELVAAIDYGGGSTTYADSVKGRFTISRDNAKNTVYLQMNSLKPEDTAVYYCAAYYRYLDDIYEYEYWGQGTQVTVSS,low polyreactivity
16,QVQLVESGGGLVQAGGSLRLSCAASGFIFWDKAMGWYRQAPGKEWELVAAISKSGTRTYYADSVKGRFTISRDTAKKTVDLQMNSLKPEETAVYYCAAEGSGYDYYYWGQGTQVTVSS,high polyreactivity
17,QVQLVESGGGLVQAGGSLRLSCAASGFIFWDYAMGWYRQAPGKERELVAAISDSGGDTYYADSVKGRFTISRDNAKNTVYFQMNSLKPEDTAVYYCAADVELWVFRGQQYDYWGQGTQVTVSS,low polyreactivity
18,QVQLVESGGGLVQAGGSLRLSCAASGFIFWGNAMGWYRQAPGKERELLAAINYSGGRTYYADSVKGRFTISRDNAKNTVYLQMNSLKPEDSAAYYCAAKYRYHVSGYDYWGQATQVTVSS,high polyreactivity
19,QVQLVESGGGLVQAGGSLRLSCAASGFIFWKNAMGWYRQAPGKERELVAAISWSGGRTYYADSVKGRFTISRDNAKNTVYLQMNSLKPEDTAVYYCNAAGRYKPGAPYDYWGQGTQVTVSS,low polyreactivity
20,QVQLVESGGGLVQAGGSLRLSCAASGFIFWNYAMGWNRQAPGKERDLVAAISSGGTITKYADSVKGRFTISRDKAKNTVYLQMNSLKPEDTAVYYCNAVVRVRFRKNDYWGQGTQVTVSS,high polyreactivity
21,QVQLVESGGGLVQAGGSLRLSCAASGFIFWSYAMGWYRQAPGKERELVAAINTSGDSTYYADSVKGRFTISRDNAKYTVYLQMNSLKPEDTAVYSCAAKSSTRGDYWGQGTQVTVSS,low polyreactivity
22,QVQLVESGGGLVQAGGSLRLSCAASGFIFWSYAMGWYRQAPGKERELVAAISWSGGRTYYADSVKGRFTISRDNAKNTVYLQMNSLKPEDTAVYYCAAVIRYGSQYPALDYWGQGTQVTVSS,high polyreactivity

row,Sequence,polyreactivity (PSR sort gate)
1,QVQLVESGGGLVQAGGSLRLSCAASGFIFWTYAMGWYRQAPGKERELVAAITGGGGTTYYADSVKGRFTISRDNAKNTVYLQMNSLKPEDTAVYYCAAKQYRSRSGGYWGQGTQVTVSS,high polyreactivity
2,QVQLVESGGGLVQAGGSLRLSCAASGFIFWVNAMGWYRQAPGKERELVAAISQSGGTTYYADSVKGRFTISRDNAKNTVYFQMNSLKPEDTAVYYCNALWRGHGRYNYWGQGTQVTVSS,low polyreactivity
3,QVQLVESGGGLVQAGGSLRLSCAASGFIFWWYGMGWYRPAPGKEREFVAAITQSGSTYYADSVKGRFTISRDNAKNTVYLQMNSLKPEDTAVYYCADVVGRRLYPRYDYWGQGTQVTVSS,high polyreactivity
4,QVQLVESGGGLVQAGGSLRLSCAASGFIFWWYTMGWYRQAPGKETELVAAITGSGGSTYYADSVKGRFTISRDNAKNTVYLQMNSLKPEDTAVYYCNAVSAYKWQYDYWGQGTQVTVSS,high polyreactivity
5,QVQLVESGGGLVQAGGSLRLSCAASGFIFWYYAMGWYRPAPGQERELVAAIRRGGSTNYADSVKGRFTISRDNAKNTVYLQMNSLKPEDTAVYYCAADVPRDTFDSWGQGTQVTVSS,low polyreactivity
6,QVQLVESGGGLVQAGGSLRLSCAASGFIFWYYAMGWYRQAPGKERELVAAISWSGTSTYYADSVKGRFTISRDNAKNTVYLQMNSLKPEDTAVYYCAAGPYSYYPLHAHYDYWGQGTQVTVSS,high polyreactivity
7,QVQLVESGGGLVQAGGSLRLSCAASGFIFWYYAMGWYRQAPGKERELVAAITSGGSTNYADSVKGRFTISRDNAKNTVYLQMNSLKPEDTAVYYCARPYVTYEYDYWGQGTQVTVSS,low polyreactivity
8,QVQLVESGGGLVQAGGSLRLSCAASGFIFWYYAMGWYRQAPGKERELVAAITSRGGSTYYADSVKGRFTISSDNAKNTDYLQMNSLKPEDTAVYYCAAKFPSRFYSFVQYYYWGQGTQVTVSS,high polyreactivity
9,QVQLVESGGGLVQAGGSLRLSCAASGFIFWYYDMGWYRPAPGKEREFVAAITRSSGSTYYADSVKGRFTISRDNAKNTVYLQMNSLKPEDTAVYYCNADSVAYGDEYDYWGQGTQVTVSS,low polyreactivity
10,QVQLVESGGGLVQAGGSLRLSCAASGFIFYANAMGWYRQAPGKERELVAAITWSGSRTYYADSVKGRFTISRDNAKNTVYLQMNSLKPEDTAVYYCNKDWYVGSFGYPEDYWGQGTQVTVSS,low polyreactivity
11,QVQLVESGGGLVQAGGSLRLSCAASGFIFYDYAMGWYRQAPGKERELVAAIRSSDGGTYYADSVKGRFTISRDNAKNTVYLQMNSLKPEDTAVYYCAAEIRWGWHPYYDYDEYWGQGTQVTVSS,low polyreactivity
12,QVQLVESGGGLVQAGGSLRLSCAASGFIFYDYAMGWYRQAPGKERELVAAISSGGSTNYADSVKGRFTISRDNAKNSVYLQMNSLKPEDTAVYYCAADDRSYATWKRDYDYWGQGTQVTVSS,low polyreactivity
13,QVQLVESGGGLVQAGGSLRLSCAASGFIFYDYAMGWYRQAPGKERELVAAITVDGGTTYYADSVKGRFTISRDNAKNTVYLQMNSLKPEDTAVYYCAADTYYGFDSNYEYWGQGTQVTVSS,low polyreactivity
14,QVQLVESGGGLVQAGGSLRLSCAASGFIFYDYAMGWYRQAPGKERELVAGITDSGGSTSYADSVKGRFTISRDNAKNTVYLHMNSLKPEDTAVYYCAADNYVRAGINYDYWGQGTQVTVSS,low polyreactivity
15,QVQLVESGGGLVQAGGSLRLSCAASGFIFYDYAMGWYRQAPGKERELVAVITSGGSTYYADSVKGRFTISRDNAKNTVYLQMNSLKPEDTAVYYCNADWVFTWYDYPNDKYDYWGQGTQVTVSS,low polyreactivity
16,QVQLVESGGGLVQAGGSLRLSCAASGFIFYEYAMGWYRQAPGKERELVAAITSGGSTDYADSVKGRFTISRDNANNTVYLQMNSLKPEDTAVYYCNADLFTGYYWYNYWGQGTQVTVSS,low polyreactivity
17,QVQLVESGGGLVQAGGSLRLSCAASGFIFYGNAMGWYRQAPGKERELVAAITRRGGRTYYADSVKGRFTISRDNAKNTVYLQMNSLKPEDTAVYYCAKDRGRSLEMDYWGQGTQVTVSS,high polyreactivity
18,QVQLVESGGGLVQAGGSLRLSCAASGFIFYGYDMGWYRQAPGKETELVASISVRGGDTYYADSVKGRFTISRDNAKNTVYLQMNSLKPEDTAVYDCNAEGYPGRFSYGVVYGDVGYDYWGQGTQVTVSS,low polyreactivity
19,QVQLVESGGGLVQAGGSLRLSCAASGFIFYIYAMGWYRQAPGKERELVAAISWNGGSTYYADSVKGRFTISRDNAKNTVYLQMNSLKPEDTAVYYCATLARYRYGTGRFDYCGQGTQVTVSS,high polyreactivity
20,QVQLVESGGGLVQAGGSLRLSCAASGFIFYKNAMGWYRQAPGKERELVAAINFSTGRTYYADSVKGRFTISRDNAKNTVYLQMNSLKPEDTAVYDCATKSANPRKYYYWGQVTQVTVSS,high polyreactivity
21,QVQLVESGGGLVQAGGSLRLSCAASGFIFYKNAMGWYRQAPGKERELVAAITQRGGRTYYADSVKGRFTISRDNSKNTVYLQMNSLKPEDTAVYYCAAKALYGKQAWRYNYWGQGTQVTVSS,high polyreactivity
